From patent publication US20230107004, “[…] ELECTROCHEMICAL BIOSENSOR” (THE GOVERNING COUNCIL OF THE UNIVERSITY OF TORONTO, published 2023)

Target: SARS-CoV-2 spike (S/S1) protein (SARS-CoV-2, UniProt P0DTC2 P0DTC2:14-685)

B1: CoV2-RBD-4C aptamer-P2 hybridized to P1 (iMP) (mixed)
DNA 1: ATCCAGAGTGACGCAGCATTTCATCGGGTCCAAAAGGGGCTGCTCGGGATTGCGGATATGGACACGTTTTTCTTATTAGATACAATAGCTGGTA
DNA 2: TACCAGCTATTGTATCTAATAAGA
modifications: P1 strand 5'-thiol-MC6 on gold electrode, 3'-NH2 conjugated to ferrocene
- binding result: binds
